Literature values as cited in article PMC11121562.
pKd: −log10 of the molar value.

Target: Cyclin C (Homo sapiens) (UniProt P24863)
Sequence of UniProt P24863 (P24863 whole entry): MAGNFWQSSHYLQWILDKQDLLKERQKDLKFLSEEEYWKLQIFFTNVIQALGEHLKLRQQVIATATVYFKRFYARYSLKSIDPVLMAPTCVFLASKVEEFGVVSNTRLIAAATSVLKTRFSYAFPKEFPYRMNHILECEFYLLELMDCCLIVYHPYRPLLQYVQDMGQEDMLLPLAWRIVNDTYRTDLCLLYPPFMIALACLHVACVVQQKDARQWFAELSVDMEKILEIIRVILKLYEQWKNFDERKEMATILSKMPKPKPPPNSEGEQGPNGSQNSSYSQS

- pKd: 8.15
Substance: CDK8 (from UniProt P49336)
